Measurements: the supplement of paper PMC10567573
± gives the standard deviation.

Assay: protein stability index of a GFP-peptide fusion (GPS, HEK-293T) (PSI 1-6); higher = more stable
Conditions: c terminus: a fixed tail appended
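Note: 24-mer peptide tiles fused after GFP, lentivirally expressed, FACS-sorted into six equal bins by GFP/DsRed ratio, decoded by Illumina sequencing, PSI is the read-weighted mean bin number.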

Sequence | protein stability index (treatment: DMSO) | protein stability index (treatment: MLN4924 1 uM, 8 h)
IKSEDMLKILKPSIPLERIHFDSY [FBXO33] | 2.43 ± 0.23 | 2.36 ± 0.29
IKYFRVDFYEAMDDYTSAIEVQPN [TTC32] | 2.48 ± 0.51 | 2.1 ± 0.46
ILILEGGYNLTSISESMAACTRSL [HDAC6] | 2.97 ± 0.61 | 2.63 ± 0.8
ILLNGVSGWIFFYVPSSESFIIYL [P2RY14] | 2.74 ± 0.27 | 2.84 ± 0.52
ILTEPAQAQKCYRDLALVSRDGMN [INTS3] | 3.28 ± 0.3 | 3.24 ± 0.6
INGSEGDGAEIAEKFVFFIGSKNG [DYNC2LI1] | 2.99 ± 0.21 | 3.4 ± 0.26
INRTFFFDVHPPLGKMLIGLAGYL [POMT2] | 3.07 ± 0.57 | 2.6 ± 0.59
INVYGNTALHIACYNGQDAVVNEL [ANKRD44] | 2.06 ± 0.16 | 2.23 ± 0.16
INYNGIFSLKQEETLDYGKNYNYG [NEUROD6] | 2.49 ± 0.22 | 2.53 ± 0.22
IPLLSSVNVSDRGGRTALHHAALN [ANKRD44] | 3.42 ± 0.38 | 3.16 ± 0.3
IPQAGGWGPWGPWGDCSRTCGGGV [ADAMTS4] | 2.68 ± 0.15 | 2.47 ± 0.22
IPVLYCMVFIAGILLNGVSGWIFF [P2RY14] | 3.28 ± 0.64 | 2.9 ± 0.37
IRKGESRSEALAVDGAGKPGAEEA [CHGA] | 5.48 ± 0.12 | 5.43 ± 0.31
ISKNSEKKMESEEDSNWEKSPDNE [GOLPH3L] | 5.57 ± 0.21 | 5.58 ± 0.1
ISLNMCLLGALVLLGLGVLLFSGG [PBXIP1] | 2.03 ± 0.24 | 2.15 ± 0.2
ITTNRFYGPQVNNISHTKEKKKGK [WASL] | 4.17 ± 0.42 | 4.37 ± 0.29
IVDQVLEEDFDSEQLSVLASCLQE [INTS3] | 4.16 ± 0.16 | 4.23 ± 0.3
IVISPFRLEELTNRLASLQQENKV [CCDC6] | 2.12 ± 0.15 | 2.4 ± 0.25
IVQGSSGAQGSGGGSTSAHYAVNS [CARM1] | – | 3.98 ± 0.91
IVYATEKKQTKVEFPEARIFEETL [KCTD13] | 3 ± 0.11 | 2.85 ± 0.35
IWDALDWTMQAYERNFWDPSPQLD [WDR41] | 2.2 ± 0.27 | 2.02 ± 0.34
IYVIGGYDGRSRLSSVECLDYTAD [KLHL12] | 2.86 ± 0.46 | 2.63 ± 0.41

Sequence | protein stability index (treatment: DMSO) | protein stability index (treatment: MLN4924 1 uM, 8 h)
KAQQEFAAGVFSNPAVRTAAANAA [SCAMP3] | 4.13 ± 0.11 | 4.11 ± 0.24
KARVLRSKSLCHDEIENLLDSDHR [CDC25B] | 4.4 ± 0.13 | 4.62 ± 0.15
KAVVFFVFYLWSAIEIFRYSFYML [HACD3] | 3.46 ± 0.28 | 3.08 ± 0.32
KCEHCRVLFLDHVMYTIHMGCHGF [IKZF1] | 2.24 ± 0.38 | 2.49 ± 0.63
KCVVHIHTPAGAAVSAMKCGLLPI [ADD1] | 2.69 ± 0.52 | 2.17 ± 0.56
KDLSNTFAKLEKLTILAKRKSLFD [STX5] | 2.45 ± 0.16 | 2.51 ± 0.32
KDYNNLWIIKKHNTNSDPLDPSFP [POMT2] | 3.15 ± 0.19 | 3.29 ± 0.26
KELCAMSEEQFRQRSPLGGDVLHA [SPDEF] | 3.88 ± 0.27 | 3.87 ± 0.13
KELDENVEYEERESEFDIEDEDKS [RBBP5] | 5.65 ± 0.23 | 5.62 ± 0.32
KEMEQLFSQYGRIITSRILVDQVT [ELAVL3] | 2.94 ± 0.24 | 3.41 ± 0.58
KEVVKKHSQFIGYPITLYLEKERE [HSP90AB1] | – | 3.32 ± 0.24
KFGRTCLHAAAAGGNVECIKLLQS [ANKRD44] | 2.44 ± 0.45 | 2.55 ± 0.12
KFGVVQTSVEECSQKGCLALSLLE [CLCN6] | 2.81 ± 0.071 | 2.99 ± 0.22
KGGYKEFFPQHPNFCEPQDYRPMN [CDC25B] | 3.52 ± 0.18 | 3.37 ± 0.2
KGKLMVCYETLPRGQCLLYNWEEE [SPAG8] | 2.55 ± 0.32 | 2.7 ± 0.34
KGSLPQPPITEVESQVFSEKLATD [ZNF232] | 5.44 ± 0.17 | 5.24 ± 0.24
KHHNLEGLRKRIATLFFHYIKTPL [IQUB] | 3.05 ± 0.27 | 2.66 ± 0.59
KIIREIDFYREDEDEEEEEGGEGE [TRIM55] | 5.18 ± 0.26 | 5.06 ± 0.24
KIKKSPLTICYPEYAGSNTYEEAA [GNAI1] | 3.34 ± 0.26 | 3.91 ± 0.28
KKHEFLTSVLDALSTDMVHAASDP [SMOC2] | 3.33 ± 0.24 | 3.46 ± 0.18
KLENARLSSEMNTSTVNSAREELM [LMNB1] | 4.59 ± 0.19 | 4.71 ± 0.11
KLRQMRVEKFIYENHPDVFSDSSM [MYOZ1] | 2.43 ± 0.17 | 2.64 ± 0.41

Sequence | protein stability index (treatment: DMSO) | protein stability index (treatment: MLN4924 1 uM, 8 h)
KNHSTVTVEEAKAEKETELSLQKE [TRIM29] | 5.57 ± 0.24 | 5.58 ± 0.23
KNRPAMNYDKLSRSIRQYYKKGII [SPDEF] | 2.46 ± 0.3 | 2.42 ± 0.48
KPYAVMVFQTEQKNLFRLEMDMVV [N4BP2L1] | 2.7 ± 0.1 | 2.96 ± 0.88
KQIYNLIHLDPRTREGFTLLHLAV [FEM1B] | 2.66 ± 0.52 | 2.67 ± 0.61
KQRPTKLKSLIRLVKHWYQNCKKK [OAS1] | 3.44 ± 0.45 | 3.08 ± 0.42
KREMILKRKEEEALKDSLRPKLSE [VDR] | 4.82 ± 0.28 | 5.24 ± 0.24
KRLYDKAAKMYHQLKKCETRKLSP [SMG5] | 2.28 ± 0.18 | 2.38 ± 0.39
KSIYYITGESKEQVANSAFVERVR [HSP90AB1] | 3.11 ± 0.32 | –
KSLLPHLKTGNSSPGIGAVYLANQ [RTP4] | 2.71 ± 0.16 | 2.77 ± 0.2
KSPIAPCSLDKRVILIFHCEFSSE [CDC25B] | 2.73 ± 0.5 | 2.8 ± 0.47
KSVRLARELESREAELRRRDTFYK [CHCHD6] | 4.23 ± 0.26 | 4.36 ± 0.29
KTCNPPDAGPMVVHCSAGVGRTGC [PTPRD] | 3.5 ± 0.32 | 3.5 ± 0.34
KTHSSPALSQGHVTGSKTTKDATG [PSD2] | 5.37 ± 0.06 | 5.46 ± 0.17
KTVCGYYTSAGTYGLDSVKKKCLE [GMCL1] | 3.16 ± 0.3 | 2.97 ± 0.49
KVCLLGDTGVGKSSIVWRFVEDSF [RAB22A] | 2.28 ± 0.22 | 2.48 ± 0.68
KVEEVSLPEQVDIIISEPMGYMLF [CARM1] | 2.88 ± 0.49 | 2.54 ± 0.35
KVFIPSLFLSHVLALGLGIYIGKR [BNIP3L] | 2.34 ± 0.89 | 2.3 ± 0.6
KVKTMEVTSVSIELEKNFSNFPRQ [TRIM39] | 3.15 ± 0.23 | 3.42 ± 0.36
KVKVPQKTAGKENHFDMHRVGKWH [ZNF75A] | 2.87 ± 0.45 | 3.43 ± 0.51
KVLLCHGELRSKSGHKLYIFLFQD [NET1] | 2.62 ± 0.55 | 2.57 ± 0.57
KVTGVEYHNAGTQTVPKRIPERLS [IQUB] | 4.22 ± 0.22 | 4.23 ± 0.32
KVYYEVIQLIKTNKKHIHSRSTLE [SMG5] | 2.33 ± 0.93 | 2.26 ± 0.25
